Assay results reported in patent US8003357B2, “Acidophilic enzymes” (Helmholtz-Zentrum Fuer Infektionsforschung GmbH, priority 2005, dated 2011).

Key:
Assay type in all cases: biochemical
[1] = Fe2+ content (ICP-MS) and Fe2+ dependence of activity, dialysis against EDTA; conditions: relative to wild type = 100; after dialysis against 1 mM EDTA; 100 mM sodium citrate, 10 mM FeCl2
Method: The UV-VIS absorption spectra of purified acidic enzymes are shown in FIG. 4, wherein the uninterrupted lines refer to Fe^2+ containing enzymes and the interrupted lines refer to enzymes after dialysis against EDTA containing buffer. The λ-max values found at ca. 572 nm correlate with the Fe^2+ content, i.e. disappear after incubation with EDTA or DTT for 24 h. ICP-MS analysis confirmed the presence of 0.82±0.10 mol Fe in EstFA, 0.34±0.08 mol Fe in αGluFA, […] and 0.63±0.09 mol Fe in LigFA.
In FIG. 5, relative activities of acidic enzymes with varying content of Fe^2+ are shown. For analysis, purified enzymes were incubated in 1 mM EDTA. At time intervals indicated, two aliquots were removed, one was used for hydrolysis of respective substrates, the other for ICP-MS analysis of Fe. For relative activities, activities before incubation with EDTA were used as 100% values.
When further investigating the dependence of the acidic enzymes according to the invention on Fe^2+, relative activity for EstFA, αGluFA and LigFA were investigated for their natural Fe^2+ content, e.g. wild-type, which was set to 100%, in comparison to the activity after dialysis against a 1 mM EDTA containing buffer.

[2] = pH and temperature dependence, stability and activity of recombinant acidic enzymes
Method: The acidic enzymes according to the invention were expressed in E. coli using the genomiccoding sequence for the respective enzyme from Ferroplasma acidiphilum, which are described in detail below. For enzymatic conversions, reaction conditions were in 100 mM sodium acetate buffer, 100 mM citrate buffer, 100 mM HEPES buffer for 2 minutes at 30° C., using p-nitrophenol propionate as the substrate for esterase, starch in the case of glycosidases, and HindIII digested λ DNA for ligase.
The activity was assayed using p-nitrophenol propionate as a substrate for esterase, starch for αGluFA and GlyFA1, GlyFA2, and HindIII digested λ DNA for LigFA.
The acidic enzymes according to the invention in vitro show similar elevated reaction temperatures. Substrates were as described for FIG. 2 above.
An overview of catalytic and molecular properties of acidic enzymes that were heterologously expressed in E. coli is given in the following Table III: […]

[3] = test system: 5′ phosphorylated oligonucleotides; Sau3A digested λ DNA; test: DNA ligation using LigFA; conditions: 40° C.
Method: For DNA ligation, double-stranded DNA fragments, each comprising a complementary 3′ overhang which were phosphorylated in 5′ can be ligated in a total volume of 20 μL ligation buffer (100 mM Na-citrate, pH 3.0, 10 μM Fe^2+, 0.01-0.1 mM ATP, optionally 0.5 mM dithiothreitol), 0.1-5 micrograms DNA and 1 to 20 nmoles ligase. The reaction conditions are 40° C. for 5 minutes to 2 hours, the reaction can be stopped by the addition of stop buffer 98% (vol/vol) formamide, 10 mM EDTA, 0.05% bromophenol blue, 0.05% xylene cyanol, 0.2% SDS), followed by heating to 95° C. for 5 minutes or, alternatively, by adding stop/loading buffer (30% sucrose, 150 mM EDTA, 0.15% SDS, 0.03% bromophenol blue), and heating to 90° C. for 2 minutes.
Oligonucleotides were phosphorylated in 5′.
Reactions were carried out in different buffers: HEPES, pH 7.0 (lane 1), HEPES, pH 6.0 (lane 2), sodium acetate, pH 5.0 (lane 3), sodium acetate, pH 4.0 (lane 4), sodium citrate, pH 3.0 to 0.5 (lanes 5 to 9, respectively). For detection of ligation, gel electrophoresis on a 10% denaturing polyacrylamide gel containing 7 M urea in TBE buffer (90 mM Tris-borate, 2.5 mM EDTA), staining with ethidium bromide. A densitometric reproduction of the gel region containing 60 base fragments is represented in FIG. 7. […]

TOP 2 fragmented DNA = test: Religation of topoisomerase 2 induced DNA breaks; conditions: LigFA pH 4.0 to 2.0; T4 ligase acidic pH values; FIG. 9
Method: For a comparison of the religation activities of acidic LigFA to T4 ligase on DNA containing breaks caused by topoisomerase 2 (TOP 2), ligation activities were determined in vitro at various pH values. The results are shown in the non-denaturing agarose gel of FIG. 9.
DNA was incubated with TOP 2 to induce DNA damage. At pH 5.0, TOP 2 caused DNA breaks (lane 2) but not at pH 3.0 (lane 3).

B1: LigFA: DNA ligase obtainable from Ferroplasma acidiphilum, 595 amino acids, Seq. ID No. 3, Fe2+ dependent (protein, listed as Ferroplasma acidiphilum)
chain: MHLMNMVDPDFNSLIELSKSAGDMTKIEPAMLRNFLDESSLSSRGAPVEIKEIKDYKIKLDGRTLNARMYDDNNAKSAILYYHGGGFLFGNIETYDNYCRFLAKESGVKIISIEYRLAPEHKFPDAFNDAYDSFHYIAKKKKDFGIEGRIGVAGDSAGANLAAALCLKCRDGKTEMPAVQVLFYPSLAPDNFSRSFIEYSDNYVLTGKMIRYFGNMYSKNMQDLINPYFSPLVADDFSNLPPAIMVTNEYDPLRDPEETYVKKLREAGVRAVGIRGIGMIHGSATDFEVSDGARNIVKMVARIIPDYL
modifications: CDS (1)..(927) est FA
notes: ID No. 3, Fe2+ dependent
activity, +EDTA [1]: 0.15%
enzymatic stability at elevated temperatures ([2]; FIG. 2, LigFA pH 3.0, EstFA and αGluFA pH 2.0 at 40 and 50° C., GlyFA1 and GlyFA2 pH 4.0 at 40° C.): good stability
Optimum temperature ([2]; measured at optimum pH): 40 °C
Optimum pH ([2]; measured at optimum temperature): 1.5-3.0
ligation of Sau3A digested λ DNA ([3]; 20 nM LigFA, 2 hours): demonstrates ligation
ligation of two oligonucleotides (35 and 25 bases) on a 70 base oligonucleotide ([3]; 20 nM ligFA, 5 minutes): ligation was obtained
religation of TOP 2 fragmented DNA at acidic pH (TOP 2 fragmented DNA): clearly demonstrated
